From PMC8034716

Molecular target: HLA-A*0201
Experiment: T2 stabilization assay (BB7.2 anti-HLA-A2 staining)
Settings: peptide-pulsed T2 cells; parent: est. 100; read off a plot

| Substance | percent of parent [%] |
| --- | --- |
| wild type p53 65-73 peptide (…) A5G | 100 |
| wild type p53 65-73 peptide (…) A6G | 68 |
| wild type p53 65-73 peptide (…) E4A | 76 |
| wild type p53 65-73 peptide (…) E4G | 100 |
| wild type p53 65-73 peptide (…) M2A | 89 |
| wild type p53 65-73 peptide (…) M2G | 89 |
| wild type p53 65-73 peptide (…) P3A | 61 |
| wild type p53 65-73 peptide (…) P3G | 65 |
| wild type p53 65-73 peptide (…) P7A | 84 |
| wild type p53 65-73 peptide (…) P7G | 47 |
| wild type p53 65-73 peptide (…) P8A | 89 |
| wild type p53 65-73 peptide (…) P8G | 72 |
| wild type p53 65-73 peptide (…) R1A | 120 |
| wild type p53 65-73 peptide (…) R1G | 100 |
| wild type p53 65-73 peptide (…) V9A | 110 |
| wild type p53 65-73 peptide (…) V9G | 67 |
